The nature of series [1]: Octanol/water partition coefficient (LogD7.4). It is filed as physicochemical. Here is the method: Determination of the Octanol/Water Partition Coefficient (LogD7.4) LogD determination was performed in triplicate and repeated over three radiolabelings. Approximately 3.7 MBq of the ^68Ga‐radiolabeled peptide were added to qsp 500 μL of PBS (Gibco, France, pH=7.4) and 500 μL of octanol (Sigma Aldrich, USA) in microcentrifuge tubes. Tubes were shaken then vortexed and centrifuged at room temperature (3 min, 4000 rpm). 100 μL of each layer were sampled in separate test tubes and measured in a gamma‐counter (Wizard2, PerkinElmer, USA). LogD7.4 value was obtained by calculating the log10 of the ratio between the organic phase activity (cpm) and the aqueous phase activity (cpm). Both activities were decay‐corrected.

In a further series the test system is NTS1. The settings on record: cited from earlier work. How it is done:
The design of novel heterodimers was based on SAR studies. […] For this reason, the NT analogue JMV 438 ([Lys^8–Lys^9]NT[8–13]) was widely studied and validated as a positive control (NTS1 K i=4.0 nM, Chart 1).[19] Recently, in the attempt to improve the binding affinity towards NTS1, lipophilic residues were incorporated in the NT[8–13] sequence.[20] Among the new analogues, JMV 2007 (Chart 1), in which a trimethylsilylala ...

This is an account of results in PMC12058244, “Design and Synthesis of ^68Ga‐Labeled Peptide‐Based Heterodimers for Dual Targeting of NTS1 and GRPR” (Chemmedchem, 2025).

Like-named read-outs stand apart in the source and are kept apart here.

On to `CC[C@H](C)[C@H](NC(=O)[C@H](Cc1ccc(O)cc1)NC(=O)[C@@H]1CCCN1C(=O)[C@H](CCCCN)NC(=O)[C@H](CCCCN)NC(=O)CCNC(=O)CCNC(=O)[C@H](CC(C)C)NC(=O)C[C@H](O)[C@H](CC(C)C)NC(=O)[C@H](Cc1c[nH]cn1)NC(=O)CNC(=O)[C@@H](NC(=O)[C@H](C)NC(=O)[C@H](Cc1c[nH]c2ccccc12)NC(=O)[C@H](CCC(N)=O)NC(=O)[C@@H](Cc1ccccc1)NC(=O)CCNC(=O)CCNC(=O)CN1CCN(CC(=O)O)CCN(CC(=O)O)CCN(CC(=O)O)CC1)C(C)C)C(=O)N[C@@H](CC(C)C)C(=O)O` [[^68Ga]Ga‐JMV 7110, metal not drawn], for which the logD in series [1] (pH 7.4) was -2.74 ± 0.21.

For `CC[C@H](C)[C@H](NC(=O)[C@H](Cc1ccc(O)cc1)NC(=O)[C@@H]1CCCN1C(=O)[C@H](CCCCN)NC(=O)[C@H](CCCCN)NC(=O)CCNC(=O)CCNC(=O)[C@H](CC(C)C)NC(=O)C[C@H](O)[C@H](CC(C)C)NC(=O)[C@H](Cc1c[nH]cn1)NC(=O)CNC(=O)[C@@H](NC(=O)[C@H](C)NC(=O)[C@H](Cc1c[nH]c2ccccc12)NC(=O)[C@H](CCC(N)=O)NC(=O)[C@@H](Cc1ccccc1)NC(=O)CCNC(=O)CCNC(=O)CN1CCN(CC(=O)O)CCN(CC(=O)O)CCN(CC(=O)O)CC1)C(C)C)C(=O)N[C@@H](C[Si](C)(C)C)C(=O)O` [[^68Ga]Ga‐JMV 7253, metal not drawn], the logD in series [1] (shake-flask octanol/PBS (Gibco) pH 7.4, 500 μL each, ~3.7 MBq 68Ga-peptide, room temperature, centrifuged 3 min 4000 rpm, gamma-counter, triplicate repeated over three radiolabelings, mean±SD, read-out: LogD7.4) is -2.46 ± 0.07.

Consider `CC[C@H](C)[C@H](NC(=O)[C@H](Cc1ccc(O)cc1)NC(=O)[C@@H]1CCCN1C(=O)[C@H](CCCCN)NC(=O)[C@H](CCCCN)NC(=O)CCNC(=O)[C@H](CCC(=O)NCCC(=O)NCCC(=O)N[C@H](Cc1ccccc1)C(=O)N[C@@H](CCC(N)=O)C(=O)N[C@@H](Cc1c[nH]c2ccccc12)C(=O)N[C@@H](C)C(=O)N[C@H](C(=O)NCC(=O)N[C@@H](Cc1c[nH]cn1)C(=O)N[C@@H](CC(C)C)[C@@H](O)CC(=O)N[C@@H](CC(C)C)C(N)=O)C(C)C)NC(=O)CCNC(=O)CN1CCN(CC(=O)O)CCN(CC(=O)O)CCN(CC(=O)O)CC1)C(=O)N[C@@H](CC(C)C)C(=O)O` [[^68Ga]Ga‐JMV 7266, metal not drawn], for which the logD in series [1] (pH 7.4) was -2.62 ± 0.13.

As for “[Lys^8‐Lys^9‐TMSAla^13]NT[8–13] [JMV 2007, NT[8-13] analogue with TMSAla at position 13]”, the concentration for half-maximal inhibition (IC50) (as a rule, the concentration needed to halve the response being measured) with NTS1 is 0.02 nM.

As for [Lys^8–Lys^9]NT[8–13] [JMV 438], the Ki (commonly the equilibrium dissociation constant of an inhibitor or competing ligand from its target) on NTS1 was 4 nM.
